Source: patent publication US20220378925A1 (ORIONIS BIOSCIENCES, published 2022)
Each block holds one binder with its values, some of them ahead of it.

Target: PD-L1 endogenously expressed on HL116 cells (human, UniProt Q9NZQ7 19-290)
Experiment: cell-based or functional assay

PD-L1 endogenously expressed on HL116 cells, sequence (Q9NZQ7 19-290): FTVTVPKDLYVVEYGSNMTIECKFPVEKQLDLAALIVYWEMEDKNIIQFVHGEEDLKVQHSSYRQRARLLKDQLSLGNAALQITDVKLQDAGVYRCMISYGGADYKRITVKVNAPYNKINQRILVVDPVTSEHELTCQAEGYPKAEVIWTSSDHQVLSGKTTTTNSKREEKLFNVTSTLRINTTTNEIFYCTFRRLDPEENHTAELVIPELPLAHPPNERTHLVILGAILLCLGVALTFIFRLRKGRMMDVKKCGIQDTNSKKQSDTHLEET

decrease of biological activity after linker-cysteine PEGylation, HL116 reporter-assay: 10 fold
B1: 2LIG99-hIFNα1, linker-cysteine 12 kDa PEGylated (other)
chain: DVQLVESGGGLVQPGGSLRLSCTASGTIFSINRMDWFRQAPGKQRELVALITSGGTPAYADSAKGRFTISRDNSKNTVYLQMNSLRPEDTAVYYCHVSSGVYNYWGQGTLVTVSSGGSGGSGGSGGSGGSGGSGGSGGSGGSGGCGGSGGSGGSGGSGGSGGSGGSGGSGGSGGSCDLPETHSLDNRRTLMLLAQMSRISPSSCLMDRHDFGFPQEEFDGNQFQKAPAISVLHELIQQIFNLFTTKDSSAAWDEDLLDKFSTELYQQLNDLEACVMQEERVGETPLMNADSILAVKKYFRRITLYLTEKKYSPCAWEVVRAEIMRSLSLSTNLQERLRRKEHHHHHH
modifications: 12 kDa mPEG-Maleimide on the cysteine in the middle of the linker (about 75% monoPEGylated material)

drop of biological activity upon amine (poly)PEGylation, HL116 reporter-assay: ~20000 fold
B2: 2LIG99-hIFNα1, amine PEGylated (polyPEGylated, mPEG20K-Succinimidyl Carboxymethyl Ester) (other)
chain: B1 chain
modifications: several 20 kDa PEG groups on the N-terminal amine and/or lysine residues (mainly polyPEGylated, sites not stated)

reduction in biological activity after N-terminal 20 kD PEGylation, HL116 reporter-assay: ~20 fold
B3: 2LIG99-hIFNα1, N-terminal 20 kDa PEGylated (other)
chain: B1 chain
modifications: 20 kDa mPEG-aldehyde on the N-terminal amine (mainly mono-PEGylated)
